# B1: abiV2 motif85-102 (18-mer short RNA) (ssRNA)
# RNA: AAGUAGCUGCAACUACUA
# B2: abiV2 motif50-66 (17-mer short RNA) (ssRNA)
# RNA: AAUUGAUACUGUCAAUA
# Tests used:
# [1] = molecular target: N-terminal truncated AbiV lacking its first 23 amino acids (AbiV_Δ23) (L. cremoris MG1363); test: crystal structure
# [2] = molecular target: surface lysine methylated full-length AbiV (product of abiV1) from L. cremoris MG1363 (L. cremoris MG1363); test: crystal structure
# [3] = molecular target: T1, AbiV (AbiV1, HEPN RNase toxin) (Lactococcus cremoris MG1363, UniProt A2RJ64 1-201); test: EMSA
# T1 sequence: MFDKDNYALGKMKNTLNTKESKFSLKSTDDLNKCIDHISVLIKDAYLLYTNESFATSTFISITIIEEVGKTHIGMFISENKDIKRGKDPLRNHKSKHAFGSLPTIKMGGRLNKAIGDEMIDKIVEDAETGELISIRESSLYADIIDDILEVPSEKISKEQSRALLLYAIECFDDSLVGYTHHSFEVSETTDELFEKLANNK
Molecule,binding result [3],also measured
N-terminal truncated AbiV lacking its first 23 amino acids (AbiV_Δ23) (domain or fragment),–,stoichiometry N [1]: 2
surface lysine methylated full-length AbiV (product of abiV1) from L. cremoris MG1363 (enzyme),–,stoichiometry N [2]: 2
B1,binds,–
B2,no binding,–
